Starred links: 1 amine or outer side, 2 acyl side, 3 side chain; linkers in the order of their positions; H or OH if unused. Non-standard residues stand in square brackets, D forms with d. Groups on a side chain read outwards from the residue. No end group written: not given here. *: point of attachment. C20 diacid = O=C(O)CCCCCCCCCCCCCCCCCCC(=O)*; C18 diacid = O=C(O)CCCCCCCCCCCCCCCCC(=O)*; γGlu = O=C(O)[C@H](CCC(=O)[*:2])N[*:1]; αMeF = C[C@](N)(Cc1ccccc1)C(=O)O; AEEA = NCCOCCOCC(=O)O; Aib = CC(C)(N)C(=O)O
What was measured:
[1] = target: human GLP-1 receptor (hGLP-1R) (human, UniProt P43220 24-463); test: cell-based or functional assay
[2] = target: human glucagon receptor (hGCGR) (human, UniProt P47871 26-477); test: cell-based or functional assay
Sequence of human glucagon receptor (hGCGR) (P47871 26-477): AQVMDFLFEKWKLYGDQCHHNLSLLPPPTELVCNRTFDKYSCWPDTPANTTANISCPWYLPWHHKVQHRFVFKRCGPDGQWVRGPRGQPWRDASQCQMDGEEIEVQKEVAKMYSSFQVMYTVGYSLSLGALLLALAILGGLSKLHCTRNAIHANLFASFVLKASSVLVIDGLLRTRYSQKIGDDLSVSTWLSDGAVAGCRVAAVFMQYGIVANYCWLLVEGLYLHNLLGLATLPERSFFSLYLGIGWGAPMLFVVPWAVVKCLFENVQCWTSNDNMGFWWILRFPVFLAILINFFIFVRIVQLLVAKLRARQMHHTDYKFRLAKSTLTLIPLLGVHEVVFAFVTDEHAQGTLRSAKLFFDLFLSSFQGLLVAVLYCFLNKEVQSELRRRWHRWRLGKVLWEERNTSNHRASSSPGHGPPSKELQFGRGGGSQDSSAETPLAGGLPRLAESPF

Binder | hGLP-1R EC50 (pM) [1] [pM] | hGluc-R EC50 (pM) [2] [pM]
H[Aib]QGTFTSDVSK[αMeF]LDTK([AEEA-AEEA-γGlu-C20 diacid])RARDFVAWLLE[Aib]G-OH (N-terminus assumed; SMILES CC(C)C[C@H](NC(=O)[C@H](Cc1c[nH]c2ccccc12)NC(=O)[C@H](C)NC(=O)[C@@H](NC(=O)[C@H](Cc1ccccc1)NC(=O)[C@H](CC(=O)O)NC(=O)[C@H](CCCNC(=N)N)NC(=O)[C@H](C)NC(=O)[C@H](CCCNC(=N)N)NC(=O)[C@H](CCCCNC(=O)COCCOCCNC(=O)COCCOCCNC(=O)CC[C@H](NC(=O)CCCCCCCCCCCCCCCCCCC(=O)O)C(=O)O)NC(=O)[C@@H](NC(=O)[C@H](CC(=O)O)NC(=O)[C@H](CC(C)C)NC(=O)[C@](C)(Cc1ccccc1)NC(=O)[C@H](CCCCN)NC(=O)[C@H](CO)NC(=O)[C@@H](NC(=O)[C@H](CC(=O)O)NC(=O)[C@H](CO)NC(=O)[C@@H](NC(=O)[C@H](Cc1ccccc1)NC(=O)[C@@H](NC(=O)CNC(=O)[C@H](CCC(N)=O)NC(=O)C(C)(C)NC(=O)[C@@H](N)Cc1c[nH]cn1)[C@@H](C)O)[C@@H](C)O)C(C)C)[C@@H](C)O)C(C)C)C(=O)N[C@@H](CC(C)C)C(=O)N[C@@H](CCC(=O)O)C(=O)NC(C)(C)C(=O)NCC(=O)O) [Peptide 506] | 162 | 149
H[Aib]QGTFTSDVSK[αMeF]LDTK([AEEA-AEEA-γGlu-C20 diacid])RARDFVAWLLE[Aib]G-NH2 [Peptide 507] | 52.9 | 86.6
H[Aib]QGTFTSDVSK[αMeF]LESK([AEEA-AEEA-γGlu-C20 diacid])RAQDFVRWLVE[Aib]G-NH2 (N-terminus assumed; SMILES CC(C)C[C@H](NC(=O)[C@H](Cc1c[nH]c2ccccc12)NC(=O)[C@H](CCCNC(=N)N)NC(=O)[C@@H](NC(=O)[C@H](Cc1ccccc1)NC(=O)[C@H](CC(=O)O)NC(=O)[C@H](CCC(N)=O)NC(=O)[C@H](C)NC(=O)[C@H](CCCNC(=N)N)NC(=O)[C@H](CCCCNC(=O)COCCOCCNC(=O)COCCOCCNC(=O)CC[C@H](NC(=O)CCCCCCCCCCCCCCCCCCC(=O)O)C(=O)O)NC(=O)[C@H](CO)NC(=O)[C@H](CCC(=O)O)NC(=O)[C@H](CC(C)C)NC(=O)[C@](C)(Cc1ccccc1)NC(=O)[C@H](CCCCN)NC(=O)[C@H](CO)NC(=O)[C@@H](NC(=O)[C@H](CC(=O)O)NC(=O)[C@H](CO)NC(=O)[C@@H](NC(=O)[C@H](Cc1ccccc1)NC(=O)[C@@H](NC(=O)CNC(=O)[C@H](CCC(N)=O)NC(=O)C(C)(C)NC(=O)[C@@H](N)Cc1c[nH]cn1)[C@@H](C)O)[C@@H](C)O)C(C)C)C(C)C)C(=O)N[C@H](C(=O)N[C@@H](CCC(=O)O)C(=O)NC(C)(C)C(=O)NCC(N)=O)C(C)C) [Peptide 508] | 67.9 | 2800
H[Aib]QGTFTSDVSK[αMeF]LDTK([AEEA-AEEA-γGlu-C20 diacid])RARDFVRWLL[Aib]E-NH2 (N-terminus assumed; SMILES CC(C)C[C@H](NC(=O)[C@H](Cc1c[nH]c2ccccc12)NC(=O)[C@H](CCCNC(=N)N)NC(=O)[C@@H](NC(=O)[C@H](Cc1ccccc1)NC(=O)[C@H](CC(=O)O)NC(=O)[C@H](CCCNC(=N)N)NC(=O)[C@H](C)NC(=O)[C@H](CCCNC(=N)N)NC(=O)[C@H](CCCCNC(=O)COCCOCCNC(=O)COCCOCCNC(=O)CC[C@H](NC(=O)CCCCCCCCCCCCCCCCCCC(=O)O)C(=O)O)NC(=O)[C@@H](NC(=O)[C@H](CC(=O)O)NC(=O)[C@H](CC(C)C)NC(=O)[C@](C)(Cc1ccccc1)NC(=O)[C@H](CCCCN)NC(=O)[C@H](CO)NC(=O)[C@@H](NC(=O)[C@H](CC(=O)O)NC(=O)[C@H](CO)NC(=O)[C@@H](NC(=O)[C@H](Cc1ccccc1)NC(=O)[C@@H](NC(=O)CNC(=O)[C@H](CCC(N)=O)NC(=O)C(C)(C)NC(=O)[C@@H](N)Cc1c[nH]cn1)[C@@H](C)O)[C@@H](C)O)C(C)C)[C@@H](C)O)C(C)C)C(=O)N[C@@H](CC(C)C)C(=O)NC(C)(C)C(=O)N[C@@H](CCC(=O)O)C(N)=O) [Peptide 511] | 118 | 140
H[Aib]QGTFTSDVSK[αMeF]LDTK([AEEA-AEEA-γGlu-C20 diacid])RAQDFVQWLLE[Aib]K-NH2 (N-terminus assumed; SMILES CC(C)C[C@H](NC(=O)[C@H](Cc1c[nH]c2ccccc12)NC(=O)[C@H](CCC(N)=O)NC(=O)[C@@H](NC(=O)[C@H](Cc1ccccc1)NC(=O)[C@H](CC(=O)O)NC(=O)[C@H](CCC(N)=O)NC(=O)[C@H](C)NC(=O)[C@H](CCCNC(=N)N)NC(=O)[C@H](CCCCNC(=O)COCCOCCNC(=O)COCCOCCNC(=O)CC[C@H](NC(=O)CCCCCCCCCCCCCCCCCCC(=O)O)C(=O)O)NC(=O)[C@@H](NC(=O)[C@H](CC(=O)O)NC(=O)[C@H](CC(C)C)NC(=O)[C@](C)(Cc1ccccc1)NC(=O)[C@H](CCCCN)NC(=O)[C@H](CO)NC(=O)[C@@H](NC(=O)[C@H](CC(=O)O)NC(=O)[C@H](CO)NC(=O)[C@@H](NC(=O)[C@H](Cc1ccccc1)NC(=O)[C@@H](NC(=O)CNC(=O)[C@H](CCC(N)=O)NC(=O)C(C)(C)NC(=O)[C@@H](N)Cc1c[nH]cn1)[C@@H](C)O)[C@@H](C)O)C(C)C)[C@@H](C)O)C(C)C)C(=O)N[C@@H](CC(C)C)C(=O)N[C@@H](CCC(=O)O)C(=O)NC(C)(C)C(=O)N[C@@H](CCCCN)C(N)=O) [Peptide 505] | 42.1 | 191
H[Aib]QGT[αMeF]TSDVSK[αMeF]LDTK([AEEA-AEEA-γGlu-C18 diacid])RAQD[αMeF]VRWLLA[Aib]G-NH2 (N-terminus assumed; SMILES CC(C)C[C@H](NC(=O)[C@H](CC(C)C)NC(=O)[C@H](Cc1c[nH]c2ccccc12)NC(=O)[C@H](CCCNC(=N)N)NC(=O)[C@@H](NC(=O)[C@](C)(Cc1ccccc1)NC(=O)[C@H](CC(=O)O)NC(=O)[C@H](CCC(N)=O)NC(=O)[C@H](C)NC(=O)[C@H](CCCNC(=N)N)NC(=O)[C@H](CCCCNC(=O)COCCOCCNC(=O)COCCOCCNC(=O)CC[C@H](NC(=O)CCCCCCCCCCCCCCCCC(=O)O)C(=O)O)NC(=O)[C@@H](NC(=O)[C@H](CC(=O)O)NC(=O)[C@H](CC(C)C)NC(=O)[C@](C)(Cc1ccccc1)NC(=O)[C@H](CCCCN)NC(=O)[C@H](CO)NC(=O)[C@@H](NC(=O)[C@H](CC(=O)O)NC(=O)[C@H](CO)NC(=O)[C@@H](NC(=O)[C@](C)(Cc1ccccc1)NC(=O)[C@@H](NC(=O)CNC(=O)[C@H](CCC(N)=O)NC(=O)C(C)(C)NC(=O)[C@@H](N)Cc1c[nH]cn1)[C@@H](C)O)[C@@H](C)O)C(C)C)[C@@H](C)O)C(C)C)C(=O)N[C@@H](C)C(=O)NC(C)(C)C(=O)NCC(N)=O) [Peptide 512] | 159 | 2310
H[Aib]QGTFTSDVSK[αMeF]LESK([AEEA-AEEA-γGlu-C20 diacid])RAQDFVRWLLE[Aib]K-OH (N-terminus assumed; SMILES CC(C)C[C@H](NC(=O)[C@H](Cc1c[nH]c2ccccc12)NC(=O)[C@H](CCCNC(=N)N)NC(=O)[C@@H](NC(=O)[C@H](Cc1ccccc1)NC(=O)[C@H](CC(=O)O)NC(=O)[C@H](CCC(N)=O)NC(=O)[C@H](C)NC(=O)[C@H](CCCNC(=N)N)NC(=O)[C@H](CCCCNC(=O)COCCOCCNC(=O)COCCOCCNC(=O)CC[C@H](NC(=O)CCCCCCCCCCCCCCCCCCC(=O)O)C(=O)O)NC(=O)[C@H](CO)NC(=O)[C@H](CCC(=O)O)NC(=O)[C@H](CC(C)C)NC(=O)[C@](C)(Cc1ccccc1)NC(=O)[C@H](CCCCN)NC(=O)[C@H](CO)NC(=O)[C@@H](NC(=O)[C@H](CC(=O)O)NC(=O)[C@H](CO)NC(=O)[C@@H](NC(=O)[C@H](Cc1ccccc1)NC(=O)[C@@H](NC(=O)CNC(=O)[C@H](CCC(N)=O)NC(=O)C(C)(C)NC(=O)[C@@H](N)Cc1c[nH]cn1)[C@@H](C)O)[C@@H](C)O)C(C)C)C(C)C)C(=O)N[C@@H](CC(C)C)C(=O)N[C@@H](CCC(=O)O)C(=O)NC(C)(C)C(=O)N[C@@H](CCCCN)C(=O)O) [Peptide 504] | 124 | 551
H[Aib]QGTFTSDVSK[αMeF]LDTK([AEEA-AEEA-γGlu-C20 diacid])RARDFVRWLL[Aib]E-OH (N-terminus assumed; SMILES CC(C)C[C@H](NC(=O)[C@H](Cc1c[nH]c2ccccc12)NC(=O)[C@H](CCCNC(=N)N)NC(=O)[C@@H](NC(=O)[C@H](Cc1ccccc1)NC(=O)[C@H](CC(=O)O)NC(=O)[C@H](CCCNC(=N)N)NC(=O)[C@H](C)NC(=O)[C@H](CCCNC(=N)N)NC(=O)[C@H](CCCCNC(=O)COCCOCCNC(=O)COCCOCCNC(=O)CC[C@H](NC(=O)CCCCCCCCCCCCCCCCCCC(=O)O)C(=O)O)NC(=O)[C@@H](NC(=O)[C@H](CC(=O)O)NC(=O)[C@H](CC(C)C)NC(=O)[C@](C)(Cc1ccccc1)NC(=O)[C@H](CCCCN)NC(=O)[C@H](CO)NC(=O)[C@@H](NC(=O)[C@H](CC(=O)O)NC(=O)[C@H](CO)NC(=O)[C@@H](NC(=O)[C@H](Cc1ccccc1)NC(=O)[C@@H](NC(=O)CNC(=O)[C@H](CCC(N)=O)NC(=O)C(C)(C)NC(=O)[C@@H](N)Cc1c[nH]cn1)[C@@H](C)O)[C@@H](C)O)C(C)C)[C@@H](C)O)C(C)C)C(=O)N[C@@H](CC(C)C)C(=O)NC(C)(C)C(=O)N[C@@H](CCC(=O)O)C(=O)O) [Peptide 510] | 176 | 118
